Test results as given in US20180217151A1.

How the values were obtained:
[1] = target: recombinant CD14 antigen (not stated (the Fab labels human PBMCs)) (UniProt P08571); test: SPR (Biacore), recombinant antigen (extracellular domain) immobilized by amine coupling, Fab as analyte, 1:1 binding mass transfer model
[2] = target: CD14 antigen on human PBMCs (human) (UniProt P08571); test: flow cytometry, human PBMCs, biotinylated Fab 1 µg/mL, SA-APC, after five washing steps; enables reversible labeling: yes
Sequence of CD14 antigen on human PBMCs (human) (P08571 20-345): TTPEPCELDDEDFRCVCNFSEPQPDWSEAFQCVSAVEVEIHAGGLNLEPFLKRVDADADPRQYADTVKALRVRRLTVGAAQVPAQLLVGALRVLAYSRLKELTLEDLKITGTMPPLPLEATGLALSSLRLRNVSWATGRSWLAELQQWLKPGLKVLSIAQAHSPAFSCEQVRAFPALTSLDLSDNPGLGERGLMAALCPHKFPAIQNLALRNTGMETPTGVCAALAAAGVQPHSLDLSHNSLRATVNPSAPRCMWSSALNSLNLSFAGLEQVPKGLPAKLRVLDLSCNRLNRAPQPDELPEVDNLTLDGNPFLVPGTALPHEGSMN

[3] = target: CD14 antigen on human PBMCs (human) (UniProt P08571); test: flow cytometry, human PBMCs, biotinylated Fab 1 µg/mL, SA-APC, after five washing steps; median of control (background) 0.25; enables reversible labeling: yes
[4] = target: CD14 antigen on human PBMCs (human) (UniProt P08571); test: flow cytometry, human PBMCs, biotinylated Fab 1 µg/mL, SA-APC, before washing; median of control (background) 0.25
[5] = target: CD4 antigen on human PBMCs (human) (UniProt P01730); test: flow cytometry on human PBMCs, Fab multimerized with anti-Biotin-PE, before disruption
[6] = target: CD4 antigen on human PBMCs (human) (UniProt P01730); test: flow cytometry, human PBMCs, biotinylated Fab 1 µg/mL, SA-APC, before washing; median of control (background) 0.3
[7] = target: CD4 antigen on human PBMCs (human) (UniProt P01730); test: flow cytometry, human PBMCs, biotinylated Fab, SA-APC, before washing; gate at APC about 5e1; the same gate in control C prints 0,06%-#
[8] = target: recombinant CD4 antigen (not stated (the Fab labels human PBMCs)) (UniProt P01730); test: SPR (Biacore), recombinant antigen (extracellular domain) immobilized by amine coupling, Fab as analyte, 1:1 binding mass transfer model
[9] = target: CD4 antigen on human PBMCs (human) (UniProt P01730); test: flow cytometry, human PBMCs, biotinylated Fab 1 µg/mL, SA-APC, after five washing steps; enables reversible labeling: yes
[10] = target: CD4 antigen on human PBMCs (human) (UniProt P01730); test: flow cytometry on human PBMCs, after 2 mM biotin and one washing step
[11] = target: CD4 antigen on human PBMCs (human) (UniProt P01730); test: flow cytometry, human PBMCs, biotinylated Fab 1 µg/mL, SA-APC, after five washing steps; median of control (background) 0.3; enables reversible labeling: yes
[12] = target: recombinant CD62L antigen (not stated (the Fab labels human PBMCs)) (UniProt P14151); test: SPR (Biacore), recombinant antigen (extracellular domain) immobilized by amine coupling, Fab as analyte, 1:1 binding mass transfer model
Sequence of recombinant CD62L antigen (not stated (the Fab labels human PBMCs)) (P14151 39-332): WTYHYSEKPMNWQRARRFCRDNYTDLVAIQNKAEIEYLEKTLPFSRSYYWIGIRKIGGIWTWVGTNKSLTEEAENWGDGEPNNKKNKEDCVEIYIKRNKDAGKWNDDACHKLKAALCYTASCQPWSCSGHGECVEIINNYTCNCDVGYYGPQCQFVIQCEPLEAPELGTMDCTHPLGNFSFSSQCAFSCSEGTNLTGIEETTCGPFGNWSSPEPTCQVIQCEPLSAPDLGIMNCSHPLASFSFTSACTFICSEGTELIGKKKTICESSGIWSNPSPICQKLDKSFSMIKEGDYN

[13] = target: CD62L antigen on human PBMCs (human) (UniProt P14151); test: flow cytometry, human PBMCs, biotinylated Fab 1 µg/mL, SA-APC, after five washing steps; enables reversible labeling: yes
Sequence of CD62L antigen on human PBMCs (human) (P14151 39-372): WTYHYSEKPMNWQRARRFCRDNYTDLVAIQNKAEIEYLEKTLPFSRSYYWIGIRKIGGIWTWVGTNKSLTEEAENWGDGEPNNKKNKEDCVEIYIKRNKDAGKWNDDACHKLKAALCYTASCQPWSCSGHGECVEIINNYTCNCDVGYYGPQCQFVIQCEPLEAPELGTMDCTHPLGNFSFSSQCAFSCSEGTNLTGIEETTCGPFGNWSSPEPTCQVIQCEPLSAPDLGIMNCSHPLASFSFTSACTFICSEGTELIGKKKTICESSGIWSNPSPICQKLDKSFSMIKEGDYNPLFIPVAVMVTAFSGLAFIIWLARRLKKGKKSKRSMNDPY

[14] = target: CD62L antigen on human PBMCs (human) (UniProt P14151); test: flow cytometry, human PBMCs, biotinylated Fab 1 µg/mL, SA-APC, after five washing steps; median of control (background) 0.2; enables reversible labeling: yes
[15] = target: CD62L antigen on human PBMCs (human) (UniProt P14151); test: flow cytometry, human PBMCs, biotinylated Fab 1 µg/mL, SA-APC, before washing; median of control (background) 0.2
[16] = target: CD27 antigen on human PBMCs (human) (UniProt P26842); test: flow cytometry, human PBMCs, biotinylated Fab 1 µg/mL, SA-APC, after five washing steps; enables reversible labeling: no
Sequence of CD27 antigen on human PBMCs (human) (P26842 20-260): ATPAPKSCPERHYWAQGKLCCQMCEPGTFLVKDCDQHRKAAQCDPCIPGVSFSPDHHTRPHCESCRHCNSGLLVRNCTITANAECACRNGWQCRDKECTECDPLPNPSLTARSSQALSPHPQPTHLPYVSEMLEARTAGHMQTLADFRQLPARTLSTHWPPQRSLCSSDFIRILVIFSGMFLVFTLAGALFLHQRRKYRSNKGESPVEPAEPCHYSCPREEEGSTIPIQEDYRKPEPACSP

[17] = target: CD27 antigen on human PBMCs (human) (UniProt P26842); test: flow cytometry, human PBMCs, biotinylated Fab, SA-APC, after five washing steps; same gate above APC about 1
[18] = target: CD27 antigen on human PBMCs (human) (UniProt P26842); test: flow cytometry, human PBMCs, biotinylated Fab 1 µg/mL, SA-APC, after five washing steps; median of control (background) 0.2; enables reversible labeling: no
[19] = target: recombinant CD27 antigen (not stated (the Fab labels human PBMCs)) (UniProt P26842); test: SPR (Biacore), recombinant antigen (extracellular domain) immobilized by amine coupling, Fab as analyte, 1:1 binding mass transfer model
Sequence of recombinant CD27 antigen (not stated (the Fab labels human PBMCs)) (P26842 20-191): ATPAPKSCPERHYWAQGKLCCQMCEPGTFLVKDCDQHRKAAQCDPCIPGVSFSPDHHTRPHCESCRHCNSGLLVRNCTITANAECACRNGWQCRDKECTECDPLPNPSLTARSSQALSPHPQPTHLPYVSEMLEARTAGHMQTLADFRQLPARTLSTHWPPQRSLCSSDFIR

[20] = target: CD27 antigen on human PBMCs (human) (UniProt P26842); test: flow cytometry, human PBMCs, biotinylated Fab, SA-APC, before washing; gate above APC about 1
[21] = target: CD27 antigen on human PBMCs (human) (UniProt P26842); test: flow cytometry, human PBMCs, biotinylated Fab 1 µg/mL, SA-APC, before washing; median of control (background) 0.2

Sequence of recombinant CD14 antigen (not stated (the Fab labels human PBMCs)) (P08571 20-352 limits assumed): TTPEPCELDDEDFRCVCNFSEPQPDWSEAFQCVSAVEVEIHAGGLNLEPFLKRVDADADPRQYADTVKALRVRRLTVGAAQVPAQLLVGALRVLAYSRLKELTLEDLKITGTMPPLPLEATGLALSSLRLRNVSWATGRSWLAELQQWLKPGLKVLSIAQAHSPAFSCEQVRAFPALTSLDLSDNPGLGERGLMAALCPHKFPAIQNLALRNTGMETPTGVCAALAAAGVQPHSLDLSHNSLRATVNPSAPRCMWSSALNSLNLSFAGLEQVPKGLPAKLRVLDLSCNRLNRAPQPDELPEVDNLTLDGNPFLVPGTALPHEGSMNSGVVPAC

TUK4 pFab
Kd [1]: 330 nM | koff [1]: 0.24 s⁻¹ | kon [1]: 730000 M⁻¹ s⁻¹ | % median value of the detected label after Fab removal (before = 100%) [2]: 0.7% | median value after Fab removal (ii) [3]: 1 | median value (i) [4]: 152

M-T466 pFab
median value of the PE signal, labeled [5]: 16.4 | median value (i) [6]: 49 | percent of cells in gate P5, column L [7]: 26.9% | Kd [8]: 16 nM | koff [8]: 0.016 s⁻¹ | kon [8]: 1e+06 M⁻¹ s⁻¹ | % median value of the detected label after Fab removal (before = 100%) [9]: 0.8% | median value of the PE signal after disruption with free biotin and washing [10]: 0.2 | median value after Fab removal (ii) [11]: 0.37

145/15 pFab
Kd [12]: 110 nM | koff [12]: 0.068 s⁻¹ | kon [12]: 640000 M⁻¹ s⁻¹ | % median value of the detected label after Fab removal (before = 100%) [13]: 2.3% | median value after Fab removal (ii) [14]: 0.82 | median value (i) [15]: 35

M-T271 pFab
% median value of the detected label after Fab removal (before = 100%) [16]: 64% | percent of cells in gate P1\P2\P3, column LR [17]: 40.2% | median value after Fab removal (ii) [18]: 6.3 | Kd [19]: 0.96 nM | koff [19]: 0.00026 s⁻¹ | kon [19]: 270000 M⁻¹ s⁻¹ | percent of cells in gate P1\P2\P3, column L [20]: 38.2% | median value (i) [21]: 9.9
